Test results from the RNAGym collection of RNA variant scans (doi:10.7554/elife.80360).

B1: Twister Ribozyme (parent)
chain: AACACUGCCAAUGCCGGUCCCAAGCCCGGAUAAAAGUGGAGGGGGCGG

Variants of: B1
Assay: self-cleavage, relative activity (ratio to wild type); higher = more cleavage; co-transcriptional

Compared with C20G A33U, A23U U37G is lower in self-cleavage: 0.13 for the first, 0.0831 for the second.

First: C27G G43A
Second: C20G U37G
The self-cleavage of the first is higher: 0.0971 for the first, 0.0665 for the second.

Going from A2U C14A to G13C C25U, the self-cleavage falls from 0.531 to 0.163.

Compared with A4G G41U, A40G G47U is lower in self-cleavage: 0.405 for the first, 0.143 for the second.

First: A10U C21G
Second: A23U U31G
The self-cleavage of the first is lower: 0.126 for the first, 0.643 for the second.

Going from A1C G7U to C9G C15A, the self-cleavage rises from 0.149 to 0.278.

Compared with A11C G38A, C8G G48A is lower in self-cleavage: 0.768 for the first, 0.227 for the second.

Going from G7A G45A to G28C A33G, the self-cleavage rises from 0.397 to 0.83.

First: C19G A32G
Second: A10C G17C
The self-cleavage of the first is higher: 0.267 for the first, 0.125 for the second.

Compared with U18G C26G, C3G C46U is higher in self-cleavage: 0.0643 for the first, 0.583 for the second.

Going from U12C C25U to A23U A30C, the self-cleavage falls from 0.736 to 0.115.

First: A11C A35G
Second: C20U G44A
The self-cleavage of the first is lower: 0.574 for the first, 1 for the second.

Compared with U6A G45A, A4G U31C is lower in self-cleavage: 0.911 for the first, 0.886 for the second.

Going from A2U G41U to C21A A40C, the self-cleavage falls from 0.157 to 0.0907.

Compared with G7U C20U, G17U G44A is higher in self-cleavage: 0.0823 for the first, 0.219 for the second.

First: G7C A30G
Second: U6G G7U
The self-cleavage of the first is lower: 0.0729 for the first, 0.626 for the second.

Compared with G17A C21A, U12C U31G is higher in self-cleavage: 0.101 for the first, 0.954 for the second.

Going from A11U U37G to G17C G39C, the self-cleavage falls from 0.953 to 0.0888.

First: C25U U31C
Second: A4C G13C
The self-cleavage of the first is higher: 0.61 for the first, 0.0474 for the second.

Compared with G13U C46U, G36A G45C is lower in self-cleavage: 0.586 for the first, 0.256 for the second.

Going from A22U G24U to C5U G44A, the self-cleavage rises from 0.11 to 0.748.

Going from G16C C46U to U6G G43C, the self-cleavage falls from 0.78 to 0.13.

First: U6C G42A
Second: C5A A33U
The self-cleavage of the first is lower: 0.0608 for the first, 0.492 for the second.

First: C21U C25U
Second: G17C U18A
The self-cleavage of the first is lower: 0.0856 for the first, 0.0862 for the second.

Going from G29U A34C to G16A A32U, the self-cleavage rises from 0.185 to 0.919.

Going from C8U C21G to C8U C21U, the self-cleavage rises from 0.0658 to 0.0732.

Going from G13U G28C to U18G G43C, the self-cleavage falls from 0.405 to 0.116.

First: A10U U31C
Second: C9G G45A
The self-cleavage of the first is higher: 0.919 for the first, 0.444 for the second.

Going from C3A U18G to A4U C15U, the self-cleavage rises from 0.0709 to 0.124.

Compared with G7A G48U, C19A A34U is lower in self-cleavage: 0.381 for the first, 0.116 for the second.

Compared with C14G A40G, C15G G16A is higher in self-cleavage: 0.0712 for the first, 0.498 for the second.

Going from G17U G42C to G17C A30C, the self-cleavage falls from 0.126 to 0.101.

Going from A23U G47U to C5U A40C, the self-cleavage rises from 0.163 to 0.171.

First: U6A C19G
Second: A22U U37G
The self-cleavage of the first is lower: 0.0747 for the first, 0.554 for the second.

Compared with C8U A11C, A2U G42U is lower in self-cleavage: 0.89 for the first, 0.172 for the second.

First: C21U G45A
Second: C21U G28C
The self-cleavage of the first is higher: 0.123 for the first, 0.0826 for the second.

Going from U12G A34G to G7A U18G, the self-cleavage falls from 0.608 to 0.066.

Compared with A35U U37C, U6G A22C is lower in self-cleavage: 0.633 for the first, 0.485 for the second.

Going from C3U A4U to C20G G42A, the self-cleavage falls from 0.12 to 0.083.

Compared with G28U G43A, A11C G47A is higher in self-cleavage: 0.221 for the first, 0.836 for the second.

Going from C9U G29A to A2G C15U, the self-cleavage falls from 0.635 to 0.503.

First: U18A G47C
Second: G13C U18A
The self-cleavage of the first is higher: 0.164 for the first, 0.067 for the second.

Going from G13C U18G to A1G C3A, the self-cleavage rises from 0.0609 to 0.349.

First: C19U U31G
Second: A22U G36A
The self-cleavage of the first is higher: 0.956 for the first, 0.179 for the second.

Compared with C14U G47C, A11G A35U is higher in self-cleavage: 0.616 for the first, 0.941 for the second.

Compared with C19G G39C, C19G G39U is lower in self-cleavage: 0.162 for the first, 0.118 for the second.

Going from U18C A23G to C25U G29C, the self-cleavage rises from 0.157 to 0.635.

First: C25U G29U
Second: A33G G47A
The self-cleavage of the first is higher: 0.824 for the first, 0.75 for the second.

First: C3A C20G
Second: C26A
The self-cleavage of the first is lower: 0.0637 for the first, 0.706 for the second.

First: A33U G41A
Second: C19A A22U
The self-cleavage of the first is higher: 0.472 for the first, 0.11 for the second.

First: G39C G43A
Second: C15A G39U
The self-cleavage of the first is lower: 0.103 for the first, 0.172 for the second.

Compared with C19U G44C, G7U C21A is lower in self-cleavage: 0.608 for the first, 0.0755 for the second.

Going from G47U G48C to C8G C21U, the self-cleavage falls from 1.36 to 0.0624.

Going from C21U G47A to C26U A30C, the self-cleavage falls from 0.123 to 0.0974.

First: U6C G45U
Second: G36U G39C
The self-cleavage of the first is higher: 0.495 for the first, 0.15 for the second.

Going from A2U C25A to G7C G43A, the self-cleavage falls from 0.0735 to 0.0617.

First: G28A G44C
Second: A10G G36A
The self-cleavage of the first is lower: 0.718 for the first, 0.786 for the second.

First: C5G C15A
Second: C5G C15U
The self-cleavage of the first is lower: 0.251 for the first, 0.467 for the second.

Going from U12A A22C to G16A U18A, the self-cleavage falls from 1.08 to 0.482.

Compared with C46G G47C, G16A A33G is lower in self-cleavage: 0.981 for the first, 0.892 for the second.

First: A4C G36U
Second: U6C G17U
The self-cleavage of the first is higher: 0.0758 for the first, 0.072 for the second.

First: A2C A10C
Second: U12G A40U
The self-cleavage of the first is lower: 0.0739 for the first, 0.279 for the second.

Going from A10G G24A to U12C G17C, the self-cleavage falls from 0.178 to 0.0944.

First: G7U A32C
Second: C21U G48A
The self-cleavage of the first is lower: 0.0917 for the first, 0.131 for the second.

Compared with A2G G43A, C20G G24U is lower in self-cleavage: 0.104 for the first, 0.0899 for the second.

Going from G41U G47C to U31G G48U, the self-cleavage rises from 0.209 to 0.938.

Going from U12G G42A to C25G A40G, the self-cleavage falls from 0.494 to 0.129.

First: U6C A40U
Second: C8G G16C
The self-cleavage of the first is higher: 0.119 for the first, 0.0753 for the second.

First: A22C A35G
Second: C19U A30G
The self-cleavage of the first is higher: 1.02 for the first, 0.918 for the second.

First: U31G G44C
Second: U31A G38U
The self-cleavage of the first is higher: 0.974 for the first, 0.692 for the second.

Going from A11U A30C to G24C C27U, the self-cleavage falls from 0.862 to 0.0994.

Compared with G17A A32G, C27G A40U is lower in self-cleavage: 0.6 for the first, 0.107 for the second.

Compared with C27G A32G, C8U A34C is higher in self-cleavage: 0.0742 for the first, 0.134 for the second.

Going from A1U G17U to C27A G38U, the self-cleavage rises from 0.0683 to 0.33.

First: C3U C5U
Second: A1C C15G
The self-cleavage of the first is higher: 0.315 for the first, 0.187 for the second.

Compared with C15G G24U, A11G G43C is higher in self-cleavage: 0.0758 for the first, 0.169 for the second.

First: C19G C26A
Second: A2G C46G
The self-cleavage of the first is lower: 0.0816 for the first, 0.431 for the second.

Going from A33U G48U to A35G G43A, the self-cleavage falls from 0.931 to 0.152.

Going from G43C G47A to G13C G47A, the self-cleavage rises from 0.138 to 0.154.

Compared with G24A G29U, C15A A33C is higher in self-cleavage: 0.1 for the first, 0.538 for the second.

Going from C8U A33G to G36C G42C, the self-cleavage falls from 0.25 to 0.189.

Going from C5U C46A to G13C G42C, the self-cleavage falls from 0.764 to 0.166.

First: C14A A23C
Second: A10U A34G
The self-cleavage of the first is lower: 0.348 for the first, 0.703 for the second.

A22C G45U gave a self-cleavage of 0.946.
